Results: publication PMC9241815, “Role of the Two-Component System CiaRH in the Regulation of Efflux Pump SatAB and Its Correlation with Fluoroquinolone Susceptibility”

How the values were obtained:
[1] = target: CiaR, phosphorylated (Streptococcus suis (WT strain, name not in the material)) (UniProt A0A0H3MUU9); assay: BLI; conditions: EMSA: Beyotime EMSA binding buffer, 20 min, room temperature, 4% native PAGE; proteins dialyzed in 25 mM Tris pH 7.4, 150 mM NaCl, 5% glycerol, 0.5 mM EDTA …
[2] = target: SatR (Streptococcus suis (WT strain, name not in the material)) (UniProt G9CHX9); assay: BLI; conditions: EMSA: Beyotime EMSA binding buffer, 20 min, room temperature, 4% native PAGE; proteins dialyzed in 25 mM Tris pH 7.4, 150 mM NaCl, 5% glycerol, 0.5 mM EDTA …
SatR [3] = target: T1, SatR (Streptococcus suis (WT strain, name not …, UniProt G9CHX9 1-149)); assay: EMSA; 200-800 ng SatR; EMSA: Beyotime EMSA binding buffer, 20 min, room temperature, 4% native PAGE; proteins dialyzed in 25 mM Tris pH 7.4, 150 mM NaCl, 5% glycerol, 0.5 mM EDTA, 1 mM DTT; BLI (Octet RED96) conditions not in material; conditions: protein: recombinant; tags: C-terminal 6xHis (from primer; pET-30a(+)); chain copies: 2; label: biotin 3' end; blunt
SatR [4] = target: T1, SatR; assay: EMSA; 800 ng SatR; EMSA: Beyotime EMSA binding buffer, 20 min, room temperature, 4% native PAGE; proteins dialyzed in 25 mM Tris pH 7.4, 150 mM NaCl, 5% glycerol, 0.5 mM EDTA, 1 mM DTT; BLI (Octet RED96) conditions not in material; conditions: protein: recombinant; tags: C-terminal 6xHis (from primer; pET-30a(+)); chain copies: 2; label: biotin 3' end; blunt

satAB promoter (Octet)
Kd [1]: 434 nM | Kd [2]: 61 nM

B1: satRAB promoter EMSA probe (dsDNA)
DNA 1: TTGACAATAGTTCTTAAGAGAACTATAATAGTTCTCATGGTAATTATTTTCGTAGAAAG
DNA 2: CTTTCTACGAAAATAATTACCATGAGAACTATTATAGTTCTCTTAAGAACTATTGTCAA
binding result (SatR [3]): binds

B2: satAB internal fragment (EMSAneg-satR) (dsDNA)
DNA 1: CTCGCTTGGCCTTGGTGACCATTGCTTCTACGCCAGTTGCCTTGATTGCCTTGGTCGTT
DNA 2: AACGACCAAGGCAATCAAGGCAACTGGCGTAGAAGCAATGGTCACCAAGGCCAAGCGAG
binding result (SatR [4]): no binding
